Results published in patent US12018084B2, “Anti-CXCR2 antibodies and uses thereof” (Cephalon LLC, priority 2018, dated 2024).

T1: Murine CXCR2 (Mus musculus, UniProt P35343)
T1 construct: expressed in transfected cells
T1 sequence (P35343 1-359): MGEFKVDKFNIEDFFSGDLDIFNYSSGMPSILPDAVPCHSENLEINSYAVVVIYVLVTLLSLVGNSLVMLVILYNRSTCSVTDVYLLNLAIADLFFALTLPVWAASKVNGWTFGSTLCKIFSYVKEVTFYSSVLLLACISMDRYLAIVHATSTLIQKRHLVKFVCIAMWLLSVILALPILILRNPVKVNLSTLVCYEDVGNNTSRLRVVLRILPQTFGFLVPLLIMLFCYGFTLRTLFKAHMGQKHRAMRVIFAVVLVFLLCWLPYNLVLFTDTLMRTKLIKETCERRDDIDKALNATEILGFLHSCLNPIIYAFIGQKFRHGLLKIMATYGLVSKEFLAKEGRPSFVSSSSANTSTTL

T2: Human CXCR2 (Homo sapiens, UniProt P25025)
T2 sequence (P25025 1-360): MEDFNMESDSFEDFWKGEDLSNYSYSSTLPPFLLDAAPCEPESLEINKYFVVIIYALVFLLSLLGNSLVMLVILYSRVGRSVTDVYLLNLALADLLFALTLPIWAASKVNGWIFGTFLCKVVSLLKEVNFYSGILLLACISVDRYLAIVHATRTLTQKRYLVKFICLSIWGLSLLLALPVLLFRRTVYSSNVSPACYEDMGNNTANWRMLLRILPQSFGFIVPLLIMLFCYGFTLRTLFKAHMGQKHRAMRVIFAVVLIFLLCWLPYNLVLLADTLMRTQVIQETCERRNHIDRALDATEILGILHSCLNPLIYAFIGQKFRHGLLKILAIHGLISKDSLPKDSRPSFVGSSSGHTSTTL

B1: BKO-8H10: VH SEQ ID NO: 43, VL SEQ ID NO: 44 (antibody, V domains shown)
VH: QVQLVQSGAEVKKPGASVKVSCKASGYTFTGYYIHWVRQAPGQGLEWMGRIKPDSGGTNYAQKFQGRVTMTRDTSITTAYMELSRLRSDDTAVYYCARGGSGWDYWGQGTLVTVSS
VL: QSALTQPPSASGSPGQSVTISFTGTSRDVGDYNYVSWYQQHPGKAPKLMIYEVNKRPSGVPDRFSGSKSGNTASLTVSGLQAEDEADYYCSSYAGSNTYVFGTGTKVTVL
modifications: BKO_8H10_VH; BKO_8H10_VL
B2: BKO-10G10: VH SEQ ID NO: 51, VL SEQ ID NO: 52 (antibody, V domains shown)
VH: QLQLQESGPGLVKPSETLSLTCTVSGGSIRRSSYYWGWIRQPPGKGLEWIGSFYNSGNTYYKPSLKSRVAISVDTPKNQFSLKLSSVTAADTAVYYCARGYSSGGFDPWGQGTLVTVSS
VL: QSALTQPASVSGSPGQSITISCTGTSSDVGGYNYVSWCQQHPGKAPKIMIFDVSNRPSGVSNRFSGSKSGNTASLTISGLQAEDEADYYCSSYTSSSTWVFGGGTRLTVL
modifications: BKO_10G10_VH; BKO_10G10_VL
B3: BKO-4F10: VH SEQ ID NO: 19, VL SEQ ID NO: 20 (antibody, V domains shown)
VH: QVQLVQSGAEVKKPGASVKVSCKASGYTFTGYYIHWVRQAPGQGLEWMGRFNPNNGGTNYAQRFQGRVTMTRDTSISTAYMELSRLRSDDTAVYYCARGPTIRLWFDNWFDSWGQGTLVTVSS
VL: QSALTQPASVSGSPGQSITISCTGTSSDVGGYNYVSWYQQHPGKAPKLMIYDVSNRPSGISNRFSGSKSGNTASLTISGLQAEDEADYYCSSYTSSSTWVFGGGTKLTVL
modifications: BKO_4F10_VH; BKO_4F10_VL
B4: 103c: VH SEQ ID NO: 163, VL SEQ ID NO: 110 (antibody, V domains shown)
VH: EVQLLESGGGLVQPGGSLRLSCAASGFTFSSSTQSWVRQPPGKGLEWVSAISGSGGSTYYADSVKGRFTISRDNSKNTLYLQMNSLRAEDTAVYYCAIQMGYWGQGILVTVSS
VL: QSALTQPPSASGSPGQSVTISCIGTSSDVGGYNYVSWYQQHPGKAPKLMIYEVSKRPSGVPDRFSGSKSGNTASLTVSGLQAEDEADYYCSSYAGSNNFGVFGGGTKLTVL
modifications: 4A8 VH Variant 103 M34Q_A40P_R53S_R55G_N56S_ R75K; 4A8 VL variant c D41G_N52S_N94S
B5: BKO-3F4: VH SEQ ID NO: 15, VL SEQ ID NO: 16 (antibody, V domains shown)
VH: EVQLLESGGGLVQPGGSLRLSCAASGLTFSSYAMSWVRQAPGKGLEWVSAISGSGGKIYYADSVKGRFTISRDNSKNTLYLQMNSLRAEDTAVYYCAIQVGYWGQGTLVTVSS
VL: QSALTQPPSASGSPGQSVTMSCTGTSSDVGGYNYVTWYQQHPGKAPKLMIYEVSKRPSGVPARFSGSKSGNTASLTVSGLQAEDEADYYCSSYAGPNNFGVFGGGTKLTVL
modifications: BKO_3F4_VH; BKO_3F4_L11_A11_VL
B6: BKO-2D8: VH SEQ ID NO: 9, VL SEQ ID NO: 10 (antibody, V domains shown)
VH: EVQLLESGGGLVQPGGSLRLSCAASGYTFTSSTMSWVRQAPGKGLEWVTAISGRGGRTYYADSVKGRFTISRDNSKNTLYLQMNSLRAEDTAVYYCAIQLGNWGQGILVTVSS
VL: QSALTQPPSASGSPGQSVTISCTGTSSDIGGYNYVSWYQQHPGKAPKLVIYEVNMRPSGVPARFSGSKSGNTASLTVSGLQAEDEADYYCSSYAGNDNFGVFGGGTKLSVL
modifications: BKO_2D8_VH; BKO_2D8_VL
B7: 104c: VH SEQ ID NO: 164, VL SEQ ID NO: 110 (antibody, V domains shown)
VH: EVQLLESGGGLVQPGGSLRLSCAASGFTFSSSTQSWVRQPPGKGLEWVSAISGSGGSTYYADSVKGRFTISRDNSKNTLYLQMNSLRAEDTAVYYCAIQKGYWGQGILVTVSS
VL: QSALTQPPSASGSPGQSVTISCIGTSSDVGGYNYVSWYQQHPGKAPKLMIYEVSKRPSGVPDRFSGSKSGNTASLTVSGLQAEDEADYYCSSYAGSNNFGVFGGGTKLTVL
modifications: 4A8 VH Variant 104 M34Q_A40P_R53S_R55G_N56S_ R75K_M96K; 4A8 VL variant c D41G_N52S_N94S
B8: BKO-9A8: VH SEQ ID NO: 47, VL SEQ ID NO: 48 (antibody, V domains shown)
VH: EVQLLESGGGLVQTGGSLRLSCAASGFTFSSNTMSWVRQAPGKGLEWVSAISGSGGRTYYVDSVKGRFTISRDNSKNTLYLQMHSLRAEDTAVYYCAIQLGSWGQGILVTVSS
VL: QSALTQPPSASGSPGQSVTISCTGTSSDVGAYNYVSWYQQHPGKAPKLMIYEVTKRPSGVPDRFSGSKSGNTASLTVSGLQAEDEADYYCSSYAGNNNFGVFGGGTKLTVL
modifications: BKO_9A8_H3_F03_VH; BKO_9A8_L1_H02_VL
B9: 105c: VH SEQ ID NO: 165, VL SEQ ID NO: 110 (antibody, V domains shown)
VH: EVQLLESGGGLVQPGGSLRLSCAASGFTFSSSTQSWVRQPPGKGLEWVSAISGSGGSTYYADSVKGRFTISRDNSKNTLYLQMNSLRAEDTAVYYCAIQAGYWGQGILVTVSS
VL: QSALTQPPSASGSPGQSVTISCIGTSSDVGGYNYVSWYQQHPGKAPKLMIYEVSKRPSGVPDRFSGSKSGNTASLTVSGLQAEDEADYYCSSYAGSNNFGVFGGGTKLTVL
modifications: 4A8 VH Variant 105 M34Q_A40P_R53S_R55G_N56S_ R75K_M96A; 4A8 VL variant c D41G_N52S_N94S
B10: BKO-1D1: VH SEQ ID NO: 5, VL SEQ ID NO: 6 (antibody, V domains shown)
VH: EVQLLESGGGLVQPGGSLRLSCAASKLTFKNSAMSWVRQAPGKGLEWVSAITGSGGRTYYADSVKGRFTISRDNSKNTLYLQMNSLRAEDTAIYYCAIQMGYWGQGILVTVSS
VL: QSALTQPPSASGSPGQSVTISCTGTSSDVGGYNYVSWYQQHPGKAPKLMIYEVNKRPSGVPARFSGSKSGNTASLTVSGLQAEDEADYYCSSYAGSNNFGVFGGGTKLTVL
modifications: BKO_1D1_VH; BKO_1D1_VL
B11: BKO-1B10: VH SEQ ID NO: 3, VL SEQ ID NO: 4 (antibody, V domains shown)
VH: QLQLQESGPGLVKPSETLSLTCTVSGGSIRTSSYYWGWIRQPPGKGLEYIGSIYYSGTTYYNPSLKSRVTMSVDTSKNQFSLKLSSVTAADTAVYYCARHGRVREVPPFDYWGQGTLVTVSS
VL: SSELTQDPAVSVALGQTVRITCQGDSLRYYYASWYQQKPGQAPVLVIYDENSRPSGIPDRFSGSSSGNTASLRITGTQAEDEADYYCNSRDTSGNHWAFGGGTKLTVL
modifications: BKO_1B10_VH; BKO_1B10_VL

Experiments:
Murine CXCR2 = biological target: T1, Murine CXCR2; test: cELISA of hybridoma supernatants on cells transfected with murine CXCR2; assay type: binding; settings: hybridoma supernatant; fluorescence units relative to positive control (100%)
Human CXCR2 [1] = biological target: T2, Human CXCR2; test: cELISA of hybridoma supernatants on cells transfected with human CXCR2; assay type: binding; parameters: host or cells: Expi293F cells, vector pTT5; settings: hybridoma supernatant; fluorescence units relative to positive control (100%)
Procedure: To generate hybridomas which produced monoclonal antibodies to human CXCR2, splenocytes and/or lymph node cells from animals with the highest anti-CXCR2 titres were isolated and fused to mouse myeloma cells (ATCC, CRL-1580). Cells were plated at approximately 1×10^5 cells/mL in flat bottom microtiter plates, followed by a two week incubation in selective medium (10% FCS and 1×HAT (Sigma)). Hybridomas were expanded by serial passage through four media changes in 96-well plates (96-well stages 1 to 4), then, where required, expanded into T25 and T75 flasks. […] Bound antibodies were detected using a goat anti-rat IgG-HRP (Southern Biotech, #3030-05) secondary antibody.
A panel of hybridomas was generated using lymph nodes and spleen cells from the transgenic rats engineered to express human variable region sequences. A cellular ELISA (cELISA) was used to detect human CXCR2 binding activity in supernatants taken during the expansion process for the hybridomas (Table 5). Hybridomas that retained expression of antibodies that bound CXCR2 after several passages were selected for DNA sequencing.

Human CXCR2 [2] = biological target: T2, Human CXCR2; test: Tango CXCR2-bla U2OS cell-based β-arrestin recruitment assay; parameters: The beta-arrestin/TEV protease fusion and the beta-lactamase reporter are separate parts of the cell line; settings: CXCL1 or CXCL8 as agonist
Source text: Cells were thawed, propagated, cultured and frozen according to the manufacturer's directions.
Preparation of Tango™ CXCR2-bla U2OS cells for use in cell-based assays: The manufacturer's protocol was altered to make use of 96-well plates instead of 384-well plates. Briefly, dividing cells were harvested one day prior to use. Cells were harvested and resuspended in assay medium (100% FreeStyle™ Expression Medium; Life Technologies; Cat #12338-018) at a viable cell density of 312,500 cells/mL. 128 μL of cell suspension was added per well in 96-well black-walled, clear bottom tissue culture-treated plates. Cells were incubated for 16-20 hrs at 37° C. in an atmosphere of 5% CO2 prior to use in assays.
Tango™ assay procedure: Assays were set up and run as described in the manufacturer's protocol. For antagonist assays, agonists were used at concentrations in the EC50-EC80 range. Assays were read using a FlexStation® 3 (Molecular Devices) fluorescence plate reader configured with the parameters given in Table 4. The blue/green emission ratio for each well was calculated by dividing the blue emission values by the green emission values. All inhibition curves were fitted using a four-parameter dose-response using GraphPad Prism™ (Version 7.01).
The Human CXCR2 Tango™ cell line was used to assess the ability of antibody BKO-4A8-101c to inhibit β-arrestin recruitment to agonist-activated CXCR2. All human ELR+ chemokine CXCR2 ligands were tested in antagonist dose response assays using calculated EC50 values of agonist.
The commercially available reporter cell line Tango™ CXCR2-bla U2OS (ThermoFisher Scientific) was used to assess the ability of the anti-CXCR2 antibodies to inhibit β-arrestin recruitment to agonist-activated CXCR2. Agonists were provided at their assay EC50 concentration for antagonist assays.

Molecule	Murine CXCR2 % Positive (Murine CXCR2)	Human CXCR2 % Positive (Human CXCR2 [1])	potency compared to the parental antibody (Human CXCR2 [2])
B1	8%	81%	
B2	4%	89%	
B3	7%	118%	
B4			reduced potency
B5	42%	86%	
B6	7%	100%	
B7			reduced potency
B8	8%	124%	
B9			reduced potency
B10	7%	67%	
B11	4%	75%	
